# Source: the DeepSol protein solubility set
# Assay: soluble on expression in E. coli; label from the status in PepcDB or PDB records
row,Sequence,soluble on expression in E. coli
1,MGSDKIHHHHHHSDSFTYPSAYGWWSVDNGYDVNNVNSRMVSGDFNGDGKADVATFYDYGNGASRIHVFTSNGSSFDYASAYGWWNTPSGYDPKRITAVVAGDFNGDHKDDIAVIYNYGNSETRIHVFISTGSSFSYTDCNGWWNATGYDAGRITGAVAGDFNGDGKSDIATMYDYGGGETRIHVFTSTGSSFTYTGANGWWNSTGYDSNRVKGRVVAGDFNGDGKTDIAAMYDYGGSESRIHVFLSTGDSFKYTGANGWWSTTGYDANKVTGRLVAGDFNGDGKADIAAMYDYGNAETRIHVLTSNGDSFTYTGANGWWNTTGYDANRVTGRVVAGDFNGDHKADIAAFYDYGSSASRIHVFTSNADSPESSKGAELVAYAESFLGVPYVWGGADPSGFDCSGLVQYCYEHFGVDLPRTTYDQVNCGTTVTDDLQPGDLLFFGSATSPTHVAIYAGNSKMVEAPHTGANVRLVDIRSYFIAKRIFN,not soluble
2,SLFGYHDVEDFQAEIGEYKIKTERIGPFYSYVRENGERKEKNLSVETGRIIVNPVEPVNLPKEITNFLQIKFSKPFLAEPKSAVEVYATFPVEIAVFIAAKKNVGLVDVFSLQKPKYTLYGNPRAGIICRYWESELYSEIPQVDKYREGVIKLRIVNSDDEWVEVSNAVFDVYGMKIYYNEEMVCSSASVNIVSPKVAETRFIEQPLREKMKKALELYTARRIAVTSLKFVMEWGL,not soluble
3,MEINSREVYVFTPKGDVMSLPQGATPVDFAYAVHTEVGHRCIGARVNGKLVTLDTKLNNGDVIDILTSNAPDAGPSRLEHHHHHH,not soluble
4,MSSASGLRRGHPAGGEENMTETDAFYKREMFDPAEKYKMDHRRRGIALIFNHERFFWHLTLPERRGTCADRDNLTRRFSDLGFEVKCFNDLKAEELLLKIHEVSTVSHADADCFVCVFLSHGEGNHIYAYDAKIEIQTLTGLFKGDKCHSLVGKPKIFIIQACRGNQHDVPVIPLDVVDNQTEKLDTNITEVDAASVYTLPAGADFLMCYSVAEGYYSHRETVNGSWYIQDLCEMLGKYGSSLEFTELLTLVNRKVSQRRVDFCKDPSAIGKKQVPCFASMLTKKLHFFPKSN,soluble
5,MGSDKIHHHHHHACTGSSQKEKPACVNTPVEPFTGLPVFDLQEQYPEKEIILQDIADVRYVVLETGDSSLVGIRPILMTDSFLVTVNKKSDVIFFDKSGKYLHSFNHTSMSGEEYGDIVSGYCIDEKAREIFIYDGLQSRIQVYGYGGAYRRTLKLPQNRMFASSIFEYDENFLFGEDYRLVDSQIGKYPVNKTPYYKISKKDGKLTSIPITVKERIRDGLSYTVGDGAFGYVSLLMSPVARFGSDILIADYSLDTAYVYRDDHLIPLTVRRNHTSENNIPILATVDVMTGRYLLWYTIVKDIDVKNNRVSDPVSYLYDRFTNEYCRVDLVNRDVVSATNIPAFQMRLSANYHVVPENYAIQYYPAEELIELNGQGKLKGELKEIASKLNDEDNPVLLIAKFKE,not soluble
6,HPPMPDYTRSLESTLSFWASWVEELPHQRLYDAEVRRSMLVLRALTDLQTGGIVAAPTTSLPEDFGGIRNWDYRYVWLRDSALTIEALVEYGFSQAALQWRTWLLRAIAGDPENLRIMYGLGGERHLPERELQHLRGYENSVPVRVGNGAAEQYQADVVGEVMVALETIRRAGCLEDEFSWGMQKAILDFQEANFDRKDQGIWEMRSEPQYFTHGRAMMWAGFDRGIKAIEEFNLDGPIERWRELRAKLREEIMTNGFNEEIQSFTQCYDNTQVDASLLQLAQIGFIGFDDPKMLSTVARIEQELLDAHGFLHRYHTDGSDGLAGDEYPFLICSFWLVEQYASSNRLDEAKEKMNRILAVQSPLGLLAEEYSTHHGRLAGNYPQAFSHIGLISAARAINFEEARNR,not soluble
7,AHHHHHHGSILKMLESRGITLERMVETALELYIGEKRDAIKEKVRELMLHYLEDINVQALLMAALMLEEKFNVEGDPVNLVADELIGIDIAEYIGGKMALFNFFYYDTKKPGILRELPPFLDDAIGGFIAGCMTLLFHIPQKNSNGGNL,soluble
8,MVDIPAGEWQTDACPGWKEGRVCPPEKYLRQTLQIAPFQLSATAVTFAQWDACVDDGGCQEPDTGWAYQTRPNQPPCQAGSPCNYPYDEGWGRGDRPVIHVSWNDAQRYVDWLSQKTGQRYRLPTSEEWEYAAAAGSHARFAWGTKLGKNRGNCNGCGSRWDGKKTAPVASFAPNRFGLYDMVGNVSEWVSTCVPIRSKPGEDNQTCMAYLYRGGAWSYDAKSVGIDTYHSIDADFRANYIGFRVARLEHHHHHH,not soluble
9,MGSDKIHHHHHHMLRLFQRKSAVLPPVAAVTETALSKGLLQPKPAAELLATPRRQKLLEHIWQRTSLSRKQFHTLYRVPLERYADLVQQFPASESHHHAYLGGMLDHGLEIVAFALKLRQSHLLPAGASPEDQAAQAEAWTAAVAYAALLHDIGKIAVDLHVELQGGRIWHPWHGPLSQPYRFRHREGREYRLHGAATGLLYSRILDSAALDWLSGYPALWSQLLYVLSGQYEHADMLGELVVQADRASVAQELGGDPAKVMAAPKHALQRKLLEGLRYLLKEQLKLNQPEASDGWLTEDALWLVSKTVSDKLRAHLLSQGIDGIPASNSAVFNVLQEHSMLQLTCPHRPYQ,not soluble
10,MGSDKIHHHHHHMAKRKVPPEFVVERDDYKCIRCLACVRVCSYGANFYDENANRVYTENTKCVGCHFCEAICPTEAITVRKNDFDIRPLAHWTPEHLIGIMKQAETGGVLLTSMGNDRPYFSYFDRIVLNASQVTNPSIDPLREPMEIRTYIGRKEEKLEIEEDEDGTVKLKTEIAPQLKLEVPVMFTAMSYGSISLNAILSLARAARTVGTFFNTGEGGLPKELREFKDNMIVQVASGRFGVSADYLNAGSAVEIKIGQGAKPGIGGHLPGEKVTEPISETRMIPVGTDALSPAPHHDIYSIEDLRQLIYAIKEATRYEKPVGVKIAAVHNVAPIAAGAVRAGADYIVIDGIRGGTGAAPKITRDHVGIPIEFAVAVVDQRLREEGIRHMASIVVAGGIRNSADVIKAIALGADAVYIGTAALISLGCHLCQTCYLGKCNWGIATQDPKLTKRLNPEIGARRAANLLRAWAHEIKEILGGMGINAIESLRGNREVLRGVGLHEYELKLLGIKPAGEAW,not soluble
11,MEERMEMISERPKESMYSWNKTAEKSDFEAVEALMSMSCSWKSDFKKYVENRPVTPVSDLSEEENLLPGTPDFHTIPAFCLTPPYSPSDFEPSQVSNLMAPAPSTVHFKSLSDTAKPHIAAPFKEEEKSPVSAPKLPKAQATSVIRHTADAQLCNHQTCPMKAASILNYQNNSFRRRTHLNVEAARKNIPCAAVSPNRSKCERNTVADVDEKASAALYDFSVPSSETVICRSQPAPVSPQQKSVLVSPPAVSAGGVPPMPVICQMVPLPANNPVVTTVVPSTPPSQPPAVCPPVVFMGTQVPKGAVMFVVPQPVVQSSKPPVVSPNGTRLSPIAPAPGFSPSAAKVTPQIDSSRIRSHICSHPGCGKTYFKSSHLKAHTRTHTGEKPFSCSWKGCERRFARSDELSRHRRTHTGEKKFACPMCDRRFMRSDHLTKHARRHLSAKKLPNWQMEVSKLNDIALPPTPAPTQ,soluble
12,SLIDNPHAQDYWPNRGQMDVQGLAVKYTEAGRAVLSDISFSVEGGLSMGLLGRTGSGKSTLLSALLRLASTDGEISIDGISWNSVPLEKWRKAFGVVPQKVFILTGTFRMNLDPHGRYSDEELWRVADQVGLKSVIEQFPDRLDFQLENGGSVLSHGHKQLMCLARSILSKARILLLDEPSAYLDTITLQVLRKTLKHAFSDCTVILSEHKVEPLLECDSFLVIEGSSVKSYDSIQKLLNEMSDLKQAVSAAD,soluble
13,MSLEGFIEDASVSLGLRNLYFNRDFRQPGAAQSKQEEWAQGFLLQAKSGYTQGTLGLGVELIGQLGLKLDSSPDRAGSGLLPRHADGRAADDYARLGVAPKLKLSNTELKLGELLPELPILLRNDGRLLPQTFQGGMLTSREIAGLTLHGGQMRSLSQRNSSDHQDLSVDGRGGAFSDRFDYLGAEYRFNAERSQVGLWQARLQDIYRQDYYSLSHKQSFGGWRLGASVGLFDTRDEGAAKLGELENRALTGFFSATRGGHSLGAGYQRMYGDDGMLYIAGTSTPLVNDIQVRNFTSAGERSWQLRYDYDFVALGIPGLTAMARYASGAHARTKAMDDGRAWERDVDVAYVIQSGPLKNLGLRWRNAMLRSNHAADVDENRLILSYSLPLLEGHHHHHH,soluble
14,VPVPPAADHKGWDFVEGYFHQFFLTKKESPLLTQETQTQLLQQFHRNGTDLLDMQMHALLHQPHCGVPDGSDTSISPGRCKWNKHTLTYRIINYPHDMKPSAVKDSIYNAVSIWSNVTPLIFQQVQNGDADIKVSFWQWAHEDGWPFDGPGGILGHAFLPNSGNPGVVHFDKNEHWSASDTGYNLFLVATHEIGHSLGLQHSGNQSSIMYPTYWYHDPRTFQLSADDIQRIQHLYGEKCSSDIP,soluble
15,MSLEAKECKVQDILTENKKFIIPSYQRPYSWTVDNAEQLIDDIYKSSQSEENEYFIGSMICINKGQNQYEVVDGQQRLTTLSIIVSELKKIIPIQGIKDDLQKRVLPIDVYSDETDEPRLIVRKKEYDLYKYYILQDSKDYKPEKPSDTELVFISNAETIRDYLLRLSVDELKLLAKYILQNVYIVFVQTDDFASSFRLFNVLNSRGLPLSNADLLKNALFESASTHNKKSEQIESAWSQIEDMVGVRRLDKFLTLHKLSEKKDRDRVLQKGFEAFIENLQQQFDGDAIAMSLMLVNSAKNYTKILENDFEHSSIRRKIASLSNLGVDEWIPPVMAFMNRMARTEDFNLDDFSQFITAFEKVYMHGWLKKQIKSQREMVCYSALVAINNDMSFDSVINQINQHADNSGFIAALDEDLYEPRPNQVNLIKAILLRLDMEQQDESVIKTYTGRITIEHILPQALVNEYWINRFQPQEHVYWLHKIGNLTLISGSKNSEAQHYDFIKKKSIYEKLNSKSSFDLTKDVCNSSEWGLAELKMRHEKMKTQLKKLWLVEGHHHHHH,soluble
16,TETRLLQARVSDLQRLSSLGRMVASLAHQVRTPLSSAMLYASNLGAPNLPPATRERFQSKLMDRLHDLEKQVNDMLLFAKGGDNKVIKPFTIAQLVAEYQPMVETALKNNNIDYFLEVEEEQTE,not soluble
17,MGSDKIHHHHHHMHLSRDVVLLITHSGDFFTIDRVAEALAKKGVQPFRLDTDKFPLQVQLTAHFDKSQSHHTIEYDNHSISTEQVQAVWMRRIWEPNLSQELAPKFQEACIRESKATLDAFWDSLKGARWVDDLERINYANNKLRQLRIASEVGFVIPQTLVTNKAQAAREFFGQVNGKMVSKLLTTLSRSMEANSSFFLYTSIVKEKDLEDAESLRYCPMVFQEQIPKQMELRVVYVNGHVFVGALNADVYAATKADWRKPGVEVGAWQHHQLPDELVRRLQAFMGKFGLLFGSLDFILTPSGEYVFLEVNPIGEWGMLEKDLDLPIANAIADILLQN,not soluble
18,MIKWGFIGCGEVTKTKSGPAFQKVEHSEVVAVMSRDGAKAKAYAKERGIRKWYDDAQELIDDPEVNAIYIATPPSSHATYAIMAMKAGKPAYIEKPMAVTYEECTRINRISKETGVPCFVAYYRRYLPYFQKVKEMVENGSIGNVINVQVRFAQPPRDLDYNRENLPWRVQADIAGGGYFYDLAPHQIDLLQDMFGCILEASGYKSNRGGLYPAEDTLSACFQFDNGLVGSGSWCFVAHDSAREDRIEIIGDKGMICFSVFTYEPIGLHTERGREEICIGNPEHVQQPLIQAVVDHLLGKSVCSCDGESATLTNWVMDKILGKL,not soluble
